How the values were obtained:
[1] = tested on: mouse intestinal organoids; experiment: Ex vivo mouse intestinal organoid culture (number and growth of organoids); type: cell-based; conditions: VHHs in place of Fc-Noggin, 5 days
Method: Finally, the VHHs were tested in an intestinal organoid culture system for their ability to neutralize the function of BMP4 ex vivo. Inhibition of BMP activity is one of the requirements to maintain Intestinal Stem Cells in vitro cultured as “organoids” that mimic crypt-villus structures and is usually provided by the addition of Noggin to the media. Murine small intestine organoids were cultured in the presence or absence of the VHH biheads and compared to Noggin. To precisely determine which BMPs are present in these cultures, BMP secretion was measured in the conditioned media of intestinal organoids grown without Noggin for three days. Whereas BMP2, BMP4 and BMP6 could be detected by ELISA (FIG. 14A), BMP5 levels were negative, most likely due to the low sensitivity of the ELISA assay (>250 pg/mL), and not due to the lack of BMP5 in these cultures. Indeed, analysis of the protein lysates of these organoids, detected the presence of BMP2, BMP4, BMP5 and BMP6 (FIG. 14B). Next, freshly isolated crypts from murine small intestines were cultured with the VHHs and tested for their ability to provide endogenous BMP inhibition and to sustain organoid cultures ex vivo. […]
Organoids were cultured as previously described (Sato et al., 2009). […] Crypts were counted and resuspended in matrigel. […]

BMP4 = target: T1, BMP4 (Homo sapiens, UniProt P12644); experiment: Phosphorylation of SMAD1/5/8 in EPC2-hTERT cells (western blot); type: cell-based; design: purchased R&D Systems; conditions: 100 ng/ml BMP4, 4 hours; indicated concentrations
T1 sequence (P12644 293-408): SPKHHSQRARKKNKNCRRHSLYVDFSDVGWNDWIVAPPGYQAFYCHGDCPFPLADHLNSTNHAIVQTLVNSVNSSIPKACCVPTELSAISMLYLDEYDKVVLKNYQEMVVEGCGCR
Method: EPC2-hTERT cells were stimulated with mouse BMP4 and pSMAD activation detected by Western Blotting.
To detect phosphorylation of SMAD1/5/8 in vitro, EPC2-hTERTs were cultured in 24-well plates and activated with 100 ng/ml of BMP2, BMP4, BMP5, BMP6 or BMP7 (R&D Systems) for 4 hours with or without VHH at the indicated concentrations. After activation, each well was washed twice with ice-cold PBS and lysed with 100 μl M-PER lysis buffer (Sigma-Aldrich, MO, United States) containing Halt Protease and Phosphatase Inhibitor Cocktail (Thermo Scientific, Landsmeer, The Netherlands). Cell debris were pelleted and supernatant was collected. 15 μg of protein was then separated by 10% SDS-PAGE and transferred onto a PVDF membrane (Millipore, Amsterdam, The Netherlands). The blots were then blocked with 5% milk in Tris-buffered saline supplemented with 0.1% Tween-20 (TBST) for 1 hour at room temperature and washed in TBST before overnight incubation at 4° C. with antiphospho-SMAD1/5/8 (Cell Signalling), anti-βactin (Santa Cruz) or anti-GAPDH (Millipore) in 5% Bovine Serum Albumin (BSA). […] After a final wash with TBST, blots were incubated for 5 minutes in LumiGlow (BIOKE, Leiden, The Netherlands) and then chemiluminescence was detected using a Fuji LAS4000 illuminator (Fujifilm Medical Systems, Stamford, Conn.). Protein was quantitated with Image).

B1: C8E7: E7 linked to C8, hetero-dimer VHH bihead (protein)
chain: EVQLVESGGGLVQAGGSLRLSCAASGRTFRINDMGWYRQAPGKSRDMVARITSGGNTNYADSVKGRFTISRDNAKNTVYLQMNSLKPEDTAVYYCNADGLRFDSTRYRPFDSWGQGTQVTVSSGGGGSGGGGSEVQLVESGGGLVQAGGSLRLSCAASGSIRGFVAMAWYRQAPGKQREWVATVTNGGTLYGDSVKGRFTGSRDNAKNTVYLQMNSLKPEDTAVYYCALRQIGASGYDYWGQGTQVTVSS
- maintenance of organoid culture growth / stem cell proliferation [1]: able to maintain culture growth of organoids
- inhibition of BMP4 signaling (pSMAD1/5/8), dimer compared to monomer (BMP4): better at inhibiting both BMP2 and BMP4 as compared to the E7 monomer

— patent US10280218B2, “Antibodies binding to BMP4, and uses thereof” (ACADEMISCH MEDISCH CENTRUM, priority 2014, dated 2019)
